# Test results as given in patent US20240117035A1.
# Tests used:
# Jurkat (human) = Jurkat (human) (UniProt P07766); experiment: FACS binding, Jurkat cells; settings: bispecific antibody
# SNU620 (human) = SNU620 (human) (UniProt P56856); experiment: FACS binding, SNU620 cells; settings: bispecific antibody
# Chain of Jurkat (human) (P07766 23-207): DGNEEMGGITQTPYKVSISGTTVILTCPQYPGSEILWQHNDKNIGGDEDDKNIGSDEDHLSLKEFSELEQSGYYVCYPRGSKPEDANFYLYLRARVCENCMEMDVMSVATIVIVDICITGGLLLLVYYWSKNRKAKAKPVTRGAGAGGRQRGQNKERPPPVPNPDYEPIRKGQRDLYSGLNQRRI
substance,measurement,setting,value
AMG-910,EC50,Jurkat (human),0.00055 µM
same,EC50,SNU620 (human),0.0878 µM
